In experiment [1] the target is RSV A + RSV B bivalent composition (RSV subtype A; RSV subtype B). The experiment in a line: AM14 prefusion assay relative to standard; RSV A + RSV B 240 µg/mL each, 2% sucrose + 4% mannitol; post-lyo T0.
Experiment [2] shares this target. The experiment in a line: AM14 prefusion assay relative to standard; RSV A + RSV B 240 µg/mL each, 2% sucrose + 4% mannitol; post-lyo 2 months at 5°C.

AM14 (trimeric prefusion specific antibody of the AM14 ELISA), sequence (VH): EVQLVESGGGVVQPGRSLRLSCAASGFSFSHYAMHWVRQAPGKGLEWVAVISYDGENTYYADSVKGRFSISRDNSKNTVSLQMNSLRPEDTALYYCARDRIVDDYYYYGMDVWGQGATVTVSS
AM14 (trimeric prefusion specific antibody of the AM14 ELISA), sequence (VL): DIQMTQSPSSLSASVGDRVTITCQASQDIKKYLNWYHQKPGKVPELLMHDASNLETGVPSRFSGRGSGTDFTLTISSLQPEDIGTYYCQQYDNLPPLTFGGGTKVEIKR

“AM14 (trimeric prefusion specific antibody of the AM14 ELISA)”: the AM14 Prefusion Content (%), relative to standard turned out to be 81% in experiment [1] and 116% in experiment [2].

The values are drawn from patent US20260097113A1 (Pfizer, published 2026).
